Experimental data: patent publication US10500249B2, “Compositions and methods for preventing or treating diseases, conditions, or processes characterized by aberrant fibroblast proliferation and extracellular matrix deposition” (MOERAE MATRIX, INC., priority 2014, dated 2019)

Assays:
Assay in all cases: Kinase Profiling Assay
Assay type in all cases: biochemical
Conditions in all cases: 100 μM
CaMKIIδ (h) = target: T1, CaMKIIδ (h) (Homo sapiens, UniProt Q13557)
T1 construct: purchased Millipore
T1 sequence (Q13557 whole entry): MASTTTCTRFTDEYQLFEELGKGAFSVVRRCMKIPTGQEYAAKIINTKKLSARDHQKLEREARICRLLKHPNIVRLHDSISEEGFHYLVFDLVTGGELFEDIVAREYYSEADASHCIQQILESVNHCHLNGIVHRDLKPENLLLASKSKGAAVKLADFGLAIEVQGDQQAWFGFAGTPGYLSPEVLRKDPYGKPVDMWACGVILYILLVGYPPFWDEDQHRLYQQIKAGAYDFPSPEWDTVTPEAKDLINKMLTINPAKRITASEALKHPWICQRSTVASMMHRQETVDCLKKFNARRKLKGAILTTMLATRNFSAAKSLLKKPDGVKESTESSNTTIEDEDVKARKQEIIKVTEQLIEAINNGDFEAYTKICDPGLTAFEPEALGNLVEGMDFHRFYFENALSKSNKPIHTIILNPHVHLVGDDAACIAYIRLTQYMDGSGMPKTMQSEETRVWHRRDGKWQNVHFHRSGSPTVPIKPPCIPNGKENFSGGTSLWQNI
How it was run: (§1)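 Duplicate wells; [radiolabeled] ATP phosphate onto cationic substrate; filter capture (negatively charged membrane); scintillation count; % of 100% activity control. Selectivity screen of MK2 peptide inhibitors, 266 human kinases.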

TAO3 (h) = target: T2, TAO3 (h) (Homo sapiens, UniProt Q9H2K8)
T2 sequence (Q9H2K8 1-898): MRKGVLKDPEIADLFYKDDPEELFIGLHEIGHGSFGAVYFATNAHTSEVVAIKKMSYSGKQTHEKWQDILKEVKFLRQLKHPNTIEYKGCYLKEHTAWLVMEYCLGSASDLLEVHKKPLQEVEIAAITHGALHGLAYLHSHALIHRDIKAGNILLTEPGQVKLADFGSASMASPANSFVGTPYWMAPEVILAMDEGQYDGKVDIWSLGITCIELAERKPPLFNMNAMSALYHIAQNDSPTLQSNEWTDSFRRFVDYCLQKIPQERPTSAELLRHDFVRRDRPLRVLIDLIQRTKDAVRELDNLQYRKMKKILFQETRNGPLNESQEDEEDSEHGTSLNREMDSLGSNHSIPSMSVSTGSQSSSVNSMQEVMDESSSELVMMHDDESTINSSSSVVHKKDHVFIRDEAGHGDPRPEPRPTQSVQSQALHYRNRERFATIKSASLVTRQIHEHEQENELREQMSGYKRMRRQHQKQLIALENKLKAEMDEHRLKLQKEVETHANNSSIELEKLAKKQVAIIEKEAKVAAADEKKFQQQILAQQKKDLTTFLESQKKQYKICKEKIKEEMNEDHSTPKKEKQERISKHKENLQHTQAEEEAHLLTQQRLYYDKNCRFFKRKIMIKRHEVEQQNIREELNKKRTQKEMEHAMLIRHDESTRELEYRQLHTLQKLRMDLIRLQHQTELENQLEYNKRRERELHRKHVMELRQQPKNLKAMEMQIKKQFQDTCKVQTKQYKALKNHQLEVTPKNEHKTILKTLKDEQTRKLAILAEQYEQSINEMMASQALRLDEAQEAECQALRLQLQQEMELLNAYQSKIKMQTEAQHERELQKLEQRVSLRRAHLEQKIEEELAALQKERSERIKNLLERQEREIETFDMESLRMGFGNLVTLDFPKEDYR
How it was run: as §1

PASK (h) = target: T3, PASK (h) (Homo sapiens, UniProt Q96RG2)
T3 construct: purchased Millipore
T3 sequence (Q96RG2 whole entry): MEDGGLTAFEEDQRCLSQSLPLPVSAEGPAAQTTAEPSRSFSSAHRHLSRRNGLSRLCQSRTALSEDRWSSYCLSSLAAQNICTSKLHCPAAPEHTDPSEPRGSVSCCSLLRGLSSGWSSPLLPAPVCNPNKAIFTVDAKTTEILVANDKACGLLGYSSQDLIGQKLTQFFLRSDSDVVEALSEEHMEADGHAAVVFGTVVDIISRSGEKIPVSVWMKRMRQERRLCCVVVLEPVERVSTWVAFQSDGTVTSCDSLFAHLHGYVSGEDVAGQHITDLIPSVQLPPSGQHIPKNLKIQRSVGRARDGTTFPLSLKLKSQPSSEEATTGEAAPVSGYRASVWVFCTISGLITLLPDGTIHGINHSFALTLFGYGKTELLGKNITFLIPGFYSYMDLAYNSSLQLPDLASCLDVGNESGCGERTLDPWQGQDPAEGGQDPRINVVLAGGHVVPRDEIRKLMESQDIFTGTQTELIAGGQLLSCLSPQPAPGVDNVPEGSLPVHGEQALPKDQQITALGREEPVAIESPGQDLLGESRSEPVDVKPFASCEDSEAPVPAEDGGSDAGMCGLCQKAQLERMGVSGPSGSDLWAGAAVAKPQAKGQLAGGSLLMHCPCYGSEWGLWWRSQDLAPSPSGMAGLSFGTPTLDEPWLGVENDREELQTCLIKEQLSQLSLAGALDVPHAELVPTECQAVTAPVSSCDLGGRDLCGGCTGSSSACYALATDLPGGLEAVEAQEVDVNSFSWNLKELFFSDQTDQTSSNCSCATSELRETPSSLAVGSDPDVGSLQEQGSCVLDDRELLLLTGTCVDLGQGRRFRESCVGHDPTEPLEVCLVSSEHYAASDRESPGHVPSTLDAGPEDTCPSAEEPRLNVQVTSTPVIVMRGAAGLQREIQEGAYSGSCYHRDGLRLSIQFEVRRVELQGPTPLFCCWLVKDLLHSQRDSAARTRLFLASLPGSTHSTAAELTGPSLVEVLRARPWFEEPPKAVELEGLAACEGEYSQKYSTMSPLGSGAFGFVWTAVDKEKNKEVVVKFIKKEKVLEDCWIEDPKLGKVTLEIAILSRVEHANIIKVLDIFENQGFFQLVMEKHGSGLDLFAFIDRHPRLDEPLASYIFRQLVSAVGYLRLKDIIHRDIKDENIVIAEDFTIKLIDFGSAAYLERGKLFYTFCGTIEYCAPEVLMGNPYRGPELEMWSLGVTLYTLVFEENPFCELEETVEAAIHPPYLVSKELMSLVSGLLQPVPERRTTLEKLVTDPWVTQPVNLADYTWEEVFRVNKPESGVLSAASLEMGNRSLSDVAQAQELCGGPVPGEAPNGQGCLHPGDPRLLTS
How it was run: as §1

EphB4 (h) = target: T4, EphB4 (h) (Homo sapiens, UniProt P54760)
T4 sequence (P54760 16-987): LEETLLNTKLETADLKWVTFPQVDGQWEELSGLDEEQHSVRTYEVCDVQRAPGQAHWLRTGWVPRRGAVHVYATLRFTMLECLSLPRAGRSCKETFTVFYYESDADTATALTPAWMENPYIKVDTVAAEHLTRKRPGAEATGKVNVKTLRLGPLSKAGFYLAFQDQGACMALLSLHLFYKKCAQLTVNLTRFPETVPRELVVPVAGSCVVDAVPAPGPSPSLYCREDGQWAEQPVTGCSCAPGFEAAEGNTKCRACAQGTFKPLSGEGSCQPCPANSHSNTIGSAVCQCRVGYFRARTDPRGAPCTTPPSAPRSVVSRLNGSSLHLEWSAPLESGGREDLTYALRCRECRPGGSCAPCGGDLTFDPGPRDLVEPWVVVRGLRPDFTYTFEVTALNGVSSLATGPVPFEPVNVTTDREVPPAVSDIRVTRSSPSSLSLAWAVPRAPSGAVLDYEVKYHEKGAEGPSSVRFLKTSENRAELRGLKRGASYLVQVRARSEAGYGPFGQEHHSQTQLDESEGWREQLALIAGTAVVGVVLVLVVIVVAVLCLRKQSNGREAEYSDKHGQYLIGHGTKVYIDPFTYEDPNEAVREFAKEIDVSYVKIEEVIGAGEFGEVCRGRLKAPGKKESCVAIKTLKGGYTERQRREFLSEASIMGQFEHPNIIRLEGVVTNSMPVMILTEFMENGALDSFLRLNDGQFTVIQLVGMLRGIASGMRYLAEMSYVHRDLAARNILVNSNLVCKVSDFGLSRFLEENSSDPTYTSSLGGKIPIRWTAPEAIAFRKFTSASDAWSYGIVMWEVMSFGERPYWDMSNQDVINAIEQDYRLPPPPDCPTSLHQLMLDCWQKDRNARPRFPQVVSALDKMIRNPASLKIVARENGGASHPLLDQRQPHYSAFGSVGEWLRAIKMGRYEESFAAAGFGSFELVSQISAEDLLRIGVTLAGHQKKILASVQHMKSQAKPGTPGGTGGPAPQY
How it was run: as §1

PAK2 (h) = target: T5, PAK2 (h) (Homo sapiens, UniProt Q13177)
T5 construct: purchased Millipore
T5 sequence (Q13177 whole entry): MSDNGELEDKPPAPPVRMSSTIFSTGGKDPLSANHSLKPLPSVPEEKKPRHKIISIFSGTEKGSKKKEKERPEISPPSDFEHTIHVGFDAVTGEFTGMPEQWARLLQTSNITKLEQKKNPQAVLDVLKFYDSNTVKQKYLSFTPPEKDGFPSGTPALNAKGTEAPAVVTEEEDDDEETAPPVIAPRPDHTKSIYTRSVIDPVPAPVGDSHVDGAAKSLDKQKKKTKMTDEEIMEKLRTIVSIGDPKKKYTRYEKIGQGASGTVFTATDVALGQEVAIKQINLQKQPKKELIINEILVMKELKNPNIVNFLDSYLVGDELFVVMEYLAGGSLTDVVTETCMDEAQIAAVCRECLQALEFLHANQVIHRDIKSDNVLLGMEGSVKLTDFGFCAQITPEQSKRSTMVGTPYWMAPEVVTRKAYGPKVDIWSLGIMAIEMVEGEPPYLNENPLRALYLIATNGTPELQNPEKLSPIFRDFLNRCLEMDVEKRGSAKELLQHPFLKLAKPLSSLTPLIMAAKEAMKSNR
How it was run: as §1

EGFR(T790M, L858R) (h) = target: T6, EGFR(T790M, L858R) (h) (Homo sapiens, UniProt P00533, L858R/T790M)
T6 construct: purchased Millipore
How it was run: as §1

Row | Sequence | % activity (CaMKIIδ (h)) [%] | % activity (TAO3 (h)) [%] | % activity (PASK (h)) [%] | % activity (EphB4 (h)) [%] | % activity (PAK2 (h)) [%] | % activity (EGFR(T790M, L858R) (h)) [%]
1 | FAKLAARLYRKALARQLGVAA [MMI-0300] | 1 | 77 | 29 | 44 | 65 | 85
2 | HRRIKAWLKKIKALARQLGVAA (Mammalian) [MMI-0500] | 1 | 12 | 9 | 38 | 44 | 53
3 | KAFAKLAARLYRKALARQLGVAA [MMI-0400] | 2 | 67 | 28 | 28 | 59 | 78
4 | YARAAARQARAKALNRQLGVA (Mammalian) [MMI-0200] | 2 | – | 60 | 131 | 69 | 108
